Results: patent US20230242662A1 (BIOATLA, published 2023)

How the values were obtained:
[1] = biological target: T1, cyno CD46 expressed on 293 cells (cynomolgus); test: FACS, 293 cells expressing cyno CD46, pH 7.4
T1 construct: whole, on cells; The construct on the cells is not described; also called HEK 293 cells expressing cyno CD46
Experimental: (§1) A similar FACS analysis was also carried out using 293 cells expressing cyno CD46. […] The EC50 values for binding to the 293 cells expressing cyno CD46 by the conditionally active anti-CD46 antibodies are summarized in Table 6.

[2] = biological target: T2, huCD46-His (human, UniProt P15529 35-343); test: SPR, huCD46-His immobilised, antibody as analyte, pH 7.4
T2 construct: extracellular domain; Immobilised by amine coupling on the SPR chip; It may be the same protein as the ELISA antigen; also called Human CD46-His; human CD46; not shown: His tag
T2 sequence (looked up): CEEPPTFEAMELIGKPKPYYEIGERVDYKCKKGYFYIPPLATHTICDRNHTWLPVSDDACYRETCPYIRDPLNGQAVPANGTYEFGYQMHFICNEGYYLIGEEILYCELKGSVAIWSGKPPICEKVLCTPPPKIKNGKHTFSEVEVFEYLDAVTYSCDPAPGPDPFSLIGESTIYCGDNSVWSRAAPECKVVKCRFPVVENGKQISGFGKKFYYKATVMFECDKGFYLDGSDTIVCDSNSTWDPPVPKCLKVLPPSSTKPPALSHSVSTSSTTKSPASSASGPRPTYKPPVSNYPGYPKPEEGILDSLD
Experimental: (§2) Binding kinetics of anti-CD46 antibodies were measured by surface plasmon resonance on a SPR2/4 instrument (Sierra Sensors, Hamburg, Germany) and flat amine sensor chips. The SPR sensor contained four flow cells (FC1-FC4), each of which can be addressed individually or in groups. huCD46-His was immobilized in FC2, and cynoCD46-His was immobilized in FC4. No protein was immobilized in FC1 and FC3 which were used as control surfaces for FC2 and FC4, respectively.
(§3) All injections were done at a flow rate of 25 μL/min and 25° C. The sensor surface was activated with 1-ethyl-3-(3-dimethylaminopropyl)-carbodiimide (EDC) and N-hydroxysuccinimide (NHS) (200 mM/50 mM) for 480 seconds. Human CD46-His (2 μg/mL in 10 mM NaAc, pH5.0) was injected for 480s and the surface was inactivated by injecting 1M ethanolamine-HCl for 480s. cynoCD46-His was immobilized using the same conditions as described for huCD46-His, except that it was diluted into 10 mM NaAc buffer pH4.5. The control surface was activated and deactivated using the same conditions, but without injecting protein. PBST buffer (PBS pH7.4 with 0.05% TWEEN20™) was used as running buffer for the surface preparation. The running solution was switched to PBST with 30 mM sodium bicarbonate with the pH adjusted as indicated in the figures before the analyte injections. The instrument was equilibrated with the running solution for one hour before the first analyte injection.
(§4) The off-rate was measured for 360 s. The chip surface was regenerated after each cycle of interaction by injecting 6 μL of 10 mM glycine (pH 2.0). Flow cells 1 and 3 without immobilized protein were used as control surfaces for reference subtraction.

[3] = biological target: T2, huCD46-His; test: SPR, huCD46-His immobilised, antibody as analyte, pH 6.0
Experimental: as §2, §3, §4

[4] = biological target: T3, recombinant cyno CD46 antigen (cynomolgus, UniProt A0A2K5WCL8 35-328); test: ELISA, coated cyno CD46; EC50 at pH 7.4 over EC50 at pH 6.0
T3 construct: extracellular domain; Plate-coated antigen of the ELISA; also called cynomolgus CD46 extracellular domain
T3 sequence: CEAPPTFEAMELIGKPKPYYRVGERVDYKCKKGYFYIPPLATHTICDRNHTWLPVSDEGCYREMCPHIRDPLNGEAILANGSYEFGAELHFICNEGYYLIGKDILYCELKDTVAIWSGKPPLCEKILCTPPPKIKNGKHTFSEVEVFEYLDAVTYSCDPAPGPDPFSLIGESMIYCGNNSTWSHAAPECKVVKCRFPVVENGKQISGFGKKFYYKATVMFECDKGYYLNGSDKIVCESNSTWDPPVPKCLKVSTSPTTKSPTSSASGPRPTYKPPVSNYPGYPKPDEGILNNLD
Experimental: The binding activities of conditionally active anti-CD46 antibodies to cyno CD46 were measured by ELISA and are shown in FIGS. 3-4. The EC50 values for binding to the cyno CD46 at pH 6.0 and pH 7.4 for the conditionally active anti-CD46 antibodies are summarized in Table 2.
[…] Cover with sealing film and place the plate onto a plate shaker set to 50 rpm for 60 minutes at room temperature. [0351] 6) Decant plates and tap out residual liquid on a stack of paper towels. [0352] 7) Serially dilute test articles in 3-fold dilutions starting at 3000 ng/mL in pH 6.0 or pH 7.4 ELISA incubation buffer. [0353] 8) Add 100 μL/well of diluted test articles to the plates [0354] 9) Cover with sealing film and place the plates onto a plate shaker set to 50 rpm for 60 minutes at room temperature. […] 10) Decant plates and tap out residual liquid on a stack of paper towels. [0356] 11) Wash wells three times by dispensing 200 μL of pH 6.0 or pH 7.4 ELISA wash buffer to the wells and completely aspirate the contents. [0357] 12) Dilute the HRP secondary antibody at 1:2500 in pH 6.0 or pH 7.4 ELISA incubation buffer. [0358] 13) Add 100 μL HRP secondary antibody diluted in pH 6.0 or pH 7.4 ELISA incubation buffer to each well [0359] 14) Cover with sealing film and place the plates onto a plate shaker set to 50 rpm for 60 minutes at room temperature. [0360] 15) Decant plates and tap out residual liquid on a stack of paper towels. [0361] 16) Wash wells three times by dispensing 200 μL of pH 6.0 or pH 7.4 ELISA wash buffer to the wells and completely aspirate the contents. [0362] 17) Dispense 50 μL per well of the TMB substrate solution into all wells of the plates. Incubate at room temperature for about 2 minutes 15 seconds or 2 minutes. […] 18) Add 50 μL per well of 1N HCl into all wells of the plates. Read plates at 450 nm using PerkinElmer, EnSpire 2300 Multilabel Reader.

[5] = biological target: T1, cyno CD46 expressed on 293 cells; test: FACS, 293 cells expressing cyno CD46, pH 6.0
Experimental: as §1

[6] = biological target: T2, huCD46-His; test: SPR, huCD46-His immobilised, antibody as analyte, pH 6.5
Experimental: as §2, §3, §4

[7] = biological target: T1, cyno CD46 expressed on 293 cells; test: FACS, 293 cells expressing cyno CD46; EC50 at pH 7.4 over EC50 at pH 6.0
Experimental: as §1

[8] = biological target: T4, cynoCD46-His (cynomolgus, UniProt A0A2K5WCL8 35-328); test: SPR, cynoCD46-His immobilised, antibody as analyte, pH 6.0
T4 construct: extracellular domain; Immobilised by amine coupling on the SPR chip; not shown: His tag
T4 sequence: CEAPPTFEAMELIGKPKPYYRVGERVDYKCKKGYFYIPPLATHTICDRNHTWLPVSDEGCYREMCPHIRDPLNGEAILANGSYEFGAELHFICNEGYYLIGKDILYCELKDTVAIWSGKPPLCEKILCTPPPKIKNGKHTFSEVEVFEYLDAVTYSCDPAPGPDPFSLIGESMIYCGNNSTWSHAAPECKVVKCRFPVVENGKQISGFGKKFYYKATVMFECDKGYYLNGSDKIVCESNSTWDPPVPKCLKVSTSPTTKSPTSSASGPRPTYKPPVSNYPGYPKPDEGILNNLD
Experimental: as §2, §3, §4

[9] = biological target: T4, cynoCD46-His; test: SPR, cynoCD46-His immobilised, antibody as analyte, pH 7.4
Experimental: as §2, §3, §4

[10] = biological target: T4, cynoCD46-His; test: SPR, cynoCD46-His immobilised, antibody as analyte, pH 6.5
Experimental: as §2, §3, §4

Binder	EC50 [1] [µg/mL]	Kd [2] [nM]	koff [2] [s⁻¹]	kon [2] [M⁻¹ s⁻¹]	Kd [3] [nM]	koff [3] [s⁻¹]	kon [3] [M⁻¹ s⁻¹]	ratio (ph 7.4/pH 6.0) [4]	EC50 [5] [µg/mL]	Kd [6] [nM]	koff [6] [s⁻¹]	kon [6] [M⁻¹ s⁻¹]	Ratio (pH 7.4/6.0) [7]	Kd [8] [nM]	koff [8] [s⁻¹]	kon [8] [M⁻¹ s⁻¹]	Kd [9] [nM]	koff [9] [s⁻¹]	kon [9] [M⁻¹ s⁻¹]	Kd [10] [nM]	further results
BAP133-2-03-03-SL (antibody, V domains shown, the killing assays used the ADC form; also called BAP133-02-03-03-SL; CPE hit BAP133-2-03-03-SL) VH: EVQLVESGGGLVQPGGSLRLSCAASGGSVSSYDISWIRQSPSRGLEWLGVIWTDGGTNYNSAFMSRFTISRDDSKNTAYLQMNSLKTEDTAVYYCERVYDGYPWFAYWGQGTLVTVSS VL: AIQLTQSPSSLSASVGDRVTITCRASQGISNYLNWYLQKPGQSPQLLIYYTSSLHSGVPDRFSGSGSGTDFTLKISRVEAEDVGVYYCQQYIKLPWTFGQGTKVEIK	1.15	0.89	0.000778	874000	2.36	0.000915	388000	11	0.104	1.29	0.000736	571000	11	2.55	0.00255	1e+06	5.47	0.00242	442000	2.33	koff [10]: 0.00198 s⁻¹; kon [10]: 849000 M⁻¹ s⁻¹
BA-133-04-02 (antibody, V domains shown, also called CPE hit BA133-04-02) VH: EVQLVESGGGLVQPGGSLRLSCAASGGSVSSYDISWIRQSPSRGLEWLGVIWTDGGTNYNSAFMSRFTISRDDSKNTAYLQMNSLKTEDTAVYYCERVYDGYPWFAYWGQGTLVTVSS VL: AIQLTQSPSSLSASVGDRVTITCRASQGIANYLNWYLQKPGQSPQLLIYYTSSLHSGVPDRFSGSGSGTDFTLKISRVEAEDVGVYYCQQYIKLPWTFGQGTKVEIK	1.37	4.17	0.00174	417000	2.33	0.00143	611000	9	0.132	2.31	0.00127	547000	10.4	0.519	0.000835	1.61e+06	1.06	0.000904	852000	0.683	koff [10]: 0.000943 s⁻¹; kon [10]: 1.38e+06 M⁻¹ s⁻¹

Second part, led by results:

EC50 [1] [µg/mL]	Kd [2] [nM]	koff [2] [s⁻¹]	kon [2] [M⁻¹ s⁻¹]	Kd [3] [nM]	koff [3] [s⁻¹]	kon [3] [M⁻¹ s⁻¹]	ratio (ph 7.4/pH 6.0) [4]	EC50 [5] [µg/mL]	Kd [6] [nM]	koff [6] [s⁻¹]	kon [6] [M⁻¹ s⁻¹]	Ratio (pH 7.4/6.0) [7]	Kd [8] [nM]	koff [8] [s⁻¹]	kon [8] [M⁻¹ s⁻¹]	Kd [9] [nM]	koff [9] [s⁻¹]	kon [9] [M⁻¹ s⁻¹]	Kd [10] [nM]	Binder	further results
0.0493	2.13	0.00119	555000	2.32	0.00158	682000	1.33	0.0336	2.15	0.00133	621000	1.5	0.795	0.00115	1.45e+06	0.905	0.0011	1.21e+06	0.778	Benchmark (BM) BA-133-00-01 (antibody, V domains shown, the killing assays used the ADC form; Conjugation site and payload are not described; also called BM (bench mark)) VH: QVQLQESGPGLVKPSETLSLTCTVSGGSVSSYDISWIRQPPGKGLEWIGVIWTDGGTNYNSAFMSRVTISVDTSKNQFSLKLSSVTAADTAVYYCARVYDGYPWFAYWGQGTLVTVSS VL: DIQMTQSPSSLSASVGDRVTITCRASQGISNYLNWYQQKPGKAPKLLIYYTSSLHSGVPSRFSGSGSGTDFTLTISSLQPEDFATYYCQQYIKLPWTFGGGTKLEIKR	koff [10]: 0.00117 s⁻¹; kon [10]: 1.51e+06 M⁻¹ s⁻¹
0.958	3.99	0.00154	385000	0.991	0.00113	1.14e+06	9.2	0.114	1.77	0.00123	696000	8.4	0.465	0.000757	1.63e+06	1.29	0.000893	690000	0.558	BA-133-04-01 (antibody, V domains shown, also called CPE hit BA133-04-01) VH: EVQLVESGGGLVQPGGSLRLSCAASGGSVSSYDISWIRQSPSRGLEWLGVIWTDGGTNYNSAFMSRFTISRDDSKNTAYLQMNSLKTEDTAVYYCERVYDGYPWFAYWGQGTLVTVSS VL: AIQLTQSPSSLSASVGDRVTITCRASQWISNYLNWYLQKPGQSPQLLIYYTSSLHSGVPDRFSGSGSGTDFTLKISRVEAEDVGVYYCQQYIKLPWTFGQGTKVEIK	koff [10]: 0.000662 s⁻¹; kon [10]: 1.19e+06 M⁻¹ s⁻¹
